In patent publication US20250263476A1 (ARGENX, published 2025):

Key:
cynomolgus monkey C2 = target: T1, cynomolgus monkey C2 (cynomolgus monkey, UniProt G8F3W0 21-752); assay: method not described; binding stated to be pH- and Ca2+-dependent; lower end of the printed range for cynomolgus C2; pH/Ca2+ condition not stated
T1 sequence: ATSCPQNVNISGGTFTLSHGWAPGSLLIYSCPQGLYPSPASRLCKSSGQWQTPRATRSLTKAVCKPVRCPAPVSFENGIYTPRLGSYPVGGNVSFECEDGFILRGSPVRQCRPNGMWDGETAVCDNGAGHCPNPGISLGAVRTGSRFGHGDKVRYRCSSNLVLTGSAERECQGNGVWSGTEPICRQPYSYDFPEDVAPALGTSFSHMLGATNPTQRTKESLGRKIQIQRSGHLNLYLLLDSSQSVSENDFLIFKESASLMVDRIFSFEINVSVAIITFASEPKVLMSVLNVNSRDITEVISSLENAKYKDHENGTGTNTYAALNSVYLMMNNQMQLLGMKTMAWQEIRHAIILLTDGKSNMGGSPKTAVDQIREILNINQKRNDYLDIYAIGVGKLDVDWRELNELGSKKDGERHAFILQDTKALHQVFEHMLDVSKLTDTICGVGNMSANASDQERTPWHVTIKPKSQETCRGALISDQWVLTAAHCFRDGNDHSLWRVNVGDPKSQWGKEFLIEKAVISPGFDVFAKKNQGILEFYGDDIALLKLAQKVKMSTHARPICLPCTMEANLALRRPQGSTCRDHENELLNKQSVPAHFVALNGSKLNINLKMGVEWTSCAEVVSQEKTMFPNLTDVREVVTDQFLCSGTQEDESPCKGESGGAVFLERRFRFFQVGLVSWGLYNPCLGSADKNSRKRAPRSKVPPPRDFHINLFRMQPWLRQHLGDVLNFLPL

[1] = target: T2, human complement component 2 (C2) (human, UniProt P06681 21-752, limits assumed); assay: method not described; binding stated to be pH- and Ca2+-dependent; lower end of the printed range for human C2; pH/Ca2+ condition not stated
T2 construct: also called human C2
T2 sequence (looked up): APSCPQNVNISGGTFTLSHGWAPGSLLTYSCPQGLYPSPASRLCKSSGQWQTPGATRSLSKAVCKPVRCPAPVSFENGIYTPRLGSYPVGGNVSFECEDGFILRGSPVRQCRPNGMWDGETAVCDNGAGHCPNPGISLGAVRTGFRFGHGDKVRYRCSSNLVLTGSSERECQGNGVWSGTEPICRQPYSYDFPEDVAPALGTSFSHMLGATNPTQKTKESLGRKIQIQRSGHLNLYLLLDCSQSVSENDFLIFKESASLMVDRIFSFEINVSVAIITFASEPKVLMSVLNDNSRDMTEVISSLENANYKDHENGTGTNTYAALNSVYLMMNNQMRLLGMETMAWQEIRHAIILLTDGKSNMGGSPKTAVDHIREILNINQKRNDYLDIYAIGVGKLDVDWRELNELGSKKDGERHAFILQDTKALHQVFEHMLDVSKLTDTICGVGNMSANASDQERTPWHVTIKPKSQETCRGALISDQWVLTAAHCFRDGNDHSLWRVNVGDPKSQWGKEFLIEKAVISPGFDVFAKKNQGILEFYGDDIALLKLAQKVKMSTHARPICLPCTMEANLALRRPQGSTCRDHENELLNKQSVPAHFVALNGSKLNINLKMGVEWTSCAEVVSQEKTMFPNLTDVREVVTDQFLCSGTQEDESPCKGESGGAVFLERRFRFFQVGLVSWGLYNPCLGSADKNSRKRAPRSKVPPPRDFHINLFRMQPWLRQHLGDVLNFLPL

C2 from rat = target: T3, C2 from rat (rat, UniProt Q8CIP8 19-758); assay: not described
T3 sequence: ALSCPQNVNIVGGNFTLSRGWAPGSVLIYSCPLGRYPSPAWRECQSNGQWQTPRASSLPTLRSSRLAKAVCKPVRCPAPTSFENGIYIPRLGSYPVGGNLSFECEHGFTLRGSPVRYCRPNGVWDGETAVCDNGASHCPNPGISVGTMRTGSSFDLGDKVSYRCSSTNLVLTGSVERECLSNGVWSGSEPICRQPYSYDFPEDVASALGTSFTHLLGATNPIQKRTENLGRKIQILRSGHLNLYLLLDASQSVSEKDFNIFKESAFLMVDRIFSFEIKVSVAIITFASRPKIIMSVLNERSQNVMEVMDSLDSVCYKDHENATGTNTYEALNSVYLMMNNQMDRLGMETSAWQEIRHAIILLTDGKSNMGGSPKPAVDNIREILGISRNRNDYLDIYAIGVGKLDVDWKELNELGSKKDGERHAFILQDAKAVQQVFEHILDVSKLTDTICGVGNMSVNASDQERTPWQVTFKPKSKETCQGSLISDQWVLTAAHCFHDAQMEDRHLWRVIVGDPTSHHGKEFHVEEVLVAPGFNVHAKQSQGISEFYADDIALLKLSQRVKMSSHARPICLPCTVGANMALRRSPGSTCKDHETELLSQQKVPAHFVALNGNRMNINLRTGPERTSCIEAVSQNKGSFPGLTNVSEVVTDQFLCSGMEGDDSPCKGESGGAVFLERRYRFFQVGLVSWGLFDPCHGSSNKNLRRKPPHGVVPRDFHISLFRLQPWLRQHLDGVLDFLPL

C2 from mouse = target: T4, C2 from mouse (mouse, UniProt P21180 19-760, limits assumed); assay: not described
T4 sequence (looked up): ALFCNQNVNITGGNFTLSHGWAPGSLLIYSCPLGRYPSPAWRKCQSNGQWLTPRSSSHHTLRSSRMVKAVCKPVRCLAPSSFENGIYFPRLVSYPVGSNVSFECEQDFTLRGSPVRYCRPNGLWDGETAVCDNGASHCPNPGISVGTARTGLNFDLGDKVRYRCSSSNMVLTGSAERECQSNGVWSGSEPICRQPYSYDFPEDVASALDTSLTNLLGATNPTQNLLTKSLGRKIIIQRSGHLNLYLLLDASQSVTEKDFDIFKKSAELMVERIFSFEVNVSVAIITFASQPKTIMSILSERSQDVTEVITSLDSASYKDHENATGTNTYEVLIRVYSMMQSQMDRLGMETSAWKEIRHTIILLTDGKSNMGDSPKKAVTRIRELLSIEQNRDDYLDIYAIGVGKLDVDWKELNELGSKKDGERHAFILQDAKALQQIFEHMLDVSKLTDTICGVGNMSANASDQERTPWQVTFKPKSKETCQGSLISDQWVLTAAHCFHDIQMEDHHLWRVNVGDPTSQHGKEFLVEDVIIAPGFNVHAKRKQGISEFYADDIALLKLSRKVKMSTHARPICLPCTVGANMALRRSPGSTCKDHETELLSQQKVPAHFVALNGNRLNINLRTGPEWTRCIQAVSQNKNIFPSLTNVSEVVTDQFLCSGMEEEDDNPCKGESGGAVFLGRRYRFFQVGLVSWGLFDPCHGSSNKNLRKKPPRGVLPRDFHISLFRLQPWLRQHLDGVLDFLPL

C2 from rabbit = target: T5, C2 from rabbit (rabbit, UniProt G1SS66 21-744); assay: not described
T5 sequence: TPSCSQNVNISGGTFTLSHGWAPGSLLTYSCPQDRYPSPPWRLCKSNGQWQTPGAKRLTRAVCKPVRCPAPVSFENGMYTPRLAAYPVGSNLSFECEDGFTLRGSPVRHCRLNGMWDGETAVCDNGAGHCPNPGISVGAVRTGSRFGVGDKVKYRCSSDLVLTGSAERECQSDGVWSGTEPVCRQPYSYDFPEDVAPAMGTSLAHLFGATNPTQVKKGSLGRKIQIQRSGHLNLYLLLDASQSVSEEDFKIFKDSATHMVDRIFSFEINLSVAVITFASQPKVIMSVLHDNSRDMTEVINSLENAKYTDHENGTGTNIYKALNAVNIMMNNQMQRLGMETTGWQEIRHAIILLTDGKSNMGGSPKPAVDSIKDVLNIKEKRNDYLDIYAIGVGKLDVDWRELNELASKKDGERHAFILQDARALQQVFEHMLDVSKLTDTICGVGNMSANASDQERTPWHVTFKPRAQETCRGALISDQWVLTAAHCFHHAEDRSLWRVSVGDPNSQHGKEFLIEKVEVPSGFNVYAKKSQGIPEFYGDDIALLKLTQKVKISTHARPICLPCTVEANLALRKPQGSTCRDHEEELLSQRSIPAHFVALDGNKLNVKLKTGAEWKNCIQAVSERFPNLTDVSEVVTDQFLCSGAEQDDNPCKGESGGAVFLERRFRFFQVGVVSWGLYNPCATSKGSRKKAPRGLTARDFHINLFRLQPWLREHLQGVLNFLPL

Kd (cynomolgus monkey C2): 0.056 to 0.13 nM
Kd [1]: 0.109 to 2.02 nM
binding result (C2 from rat): no binding
binding result (C2 from mouse): no binding
binding result (C2 from rabbit): no binding
B1: ARGX-117 (antibody, human IgG1, kappa, L234A L235A, V domains shown)
VH: EVQLVQSGAEVKKPGASVKVSCKASGYTFTDYNMDWVRQATGQGLEWIGDINPNYESTGYNQKFKGRATMTVDKSISTAYMELSSLRSEDTAVYYCAREDDHDAFAYWGQGTLVTVSS
VL: DNVLTQSPDSLAVSLGERATISCRASKSVRTSGYNYMHWYQQKPGQPPKLLIYLASNLKSGVPDRFSGSGSGTDFTLTISSLQAEDAATYYCQHSRELPYTFGQGTKLEIKR
notes: also called anti-C2 antibody
